Results on five molecules are retold here after patent US11814435B2, “Therapeutic antibodies and their uses” (PFIZER INC., priority 2015, dated 2023).

The test system of assay [1] is Molp8 LucGFP orthotopic myeloma. The experiment in a line: Anti-BCMA/CD3 bispecific in combination with standard of care in orthotopic Molp8 tumor model. The format is in vivo, NSG mice. The settings on record: FIG. 14; bispecific 0.3 mg/kg; bortezomib 1 mg/kg i.p.; lenalidomide 50 mg/kg oral gavage. As for the experimental part: In vivo efficacy study of BCMA bispecifics was performed with Molp8, expressing luciferase and GFP, orthotopic model. Two million Molp8 LucGFP cells were injected intravenously through the tail vein into 6-8 weeks old female NSG animals. Intraperitoneal injection of D-luciferin (Regis Technologies, Morton Grove, Ill.) (200 uL per animal at 15 mg/mL), followed by anesthesia with isofluorane and subsequent whole body bioluminescence imaging (BLI) enabled monitoring of tumor burden. Bioluminescent signals emitted by the interaction between luciferase expressed by the tumor cells and luciferin were captured by imaging using an IVIS Spectrum CT (Perkin Elmer, MA) and quantified as total flux (photons/sec) using Living Image 4.4 (Caliper Life Sciences, Alameda, Calif.). The animals were injected through bolus tail vein on day 7 with 20 million expanded T cells as described in Example 18. Two days post T cell injection, mice were imaged and randomized into five groups of seven mice with an average of 17E6 total flux/group: 1) Combo_Rd4_0.6 nM_C29, 0.3 mg/kg, 2) Combo_Rd4_0.6 nM_C29, 0.3 mg/kg and 1 mg/kg bortezomib, 3) Combo_Rd4_0.6 nM_C29, 0.3 mg/kg and 50 mg/kg lenalidomide, 4) 1 mg/kg bortezomib and 50 mg/kg lenalidomide and 5) vehicle. […]

For assay [2], the system named is OPM2 cells. The experiment in a line: Anti-BCMA/CD3 bispecific with lenalidomide, carfilzomib or doxorubicin, T cell killing of OPM2 (flow cytometry live cells). The format is cell-based. The note with it: FIGS. 15A-15C; 1.56 nM carfilzomib, 195 nM lenalidomide, 6.25 nM doxorubicin; three days. As for the experimental part: OPM2 and CD3+ T cells were first incubated with the standard of care for two hours at 37°. 1.56 nM carfilzomib and 6.25 nM doxorubicin were diluted in PBS containing 0.02% DMSO. Lenalidomide was diluted in PBS containing 0.1% DMSO at 195 nM. Cells were treated with 10-fold serially diluted bispecific antibody.
For orientation: Flow cytometry measures light scatter and fluorescence of single cells or particles in a stream.

For assay [3], the target named is T1, BCMA (Homo sapiens, UniProt Q02223).
T1 sequence (Q02223 1-184): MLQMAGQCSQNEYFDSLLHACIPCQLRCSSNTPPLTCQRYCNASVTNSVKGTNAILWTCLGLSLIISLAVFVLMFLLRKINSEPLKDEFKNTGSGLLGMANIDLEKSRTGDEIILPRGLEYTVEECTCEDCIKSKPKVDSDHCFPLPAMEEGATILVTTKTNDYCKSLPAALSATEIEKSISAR
The settings on record: background; read-out: affinity for BCMA; cited from earlier work.

For assay [4], the system named is primary myeloma cells from myeloma patients. The experiment in a line: T cell mediated killing of primary myeloma patient samples by anti-BCMA/CD3 bispecific (flow cytometry live cell count). The format is cell-based, human. The note with it: Patient MM00146; anti-BCMA_h2B4 bispecific; five days after treatment. As for the experimental part:
Human anti-BCMA (P5A2, A02_Rd4_0.6 nM_C01, A02_Rd4_6 nM_C16, Combo_Rd4_0.6 nM_C29, and P6E01 L3PY/H3TAQ) and human anti-CD3 (h2B4) antibodies were expressed as human IgG2dA engineered with EEEE or RRRR for bispecific exchange as describe in Example 8.
Cells were treated with 10-fold serially diluted bispecific antibody. […] EC50 was calculated by Prism software.

Assay [5] has as its target hCD3 (human CD3) (Homo sapiens, UniProt P07766). The experiment in a line: Kinetics and affinity of hCD3/human IgG interactions by SPR (Bio-Rad Proteon XPR36). The format is binding. The procedure: All experiments were performed on a Bio-Rad Proteon XPR36 surface Plasmon resonance biosensor (Bio-Rad, Hercules, Calif.). An array of anti-CD3 antibodies was prepared using an amine-coupling method on a Bio-Rad GLC Sensor Chip similar to that described in Abdiche, et al., Anal. Biochem. 411, 139-151 (2011). The analysis temperature for the immobilization was 25° C. and the running buffer was HBS-T+(10 mM HEPES, 150 mM NaCl, 0.05% Tween-20, pH 7.4). Channels were activated in the analyte (horizontal) direction by injecting a mixture of 1 mM ECD and 0.25 mM NHS for 3 minutes at a flow rate of 30 μL/min. IgGs were immobilized on the activated spots by injecting them in the ligand (vertical) direction at 20 μg/mL in 10 mM Acetate pH 4.5 buffer for 1.5 minutes at […]. The activated surfaces were blocked by injecting 1M ethanolamine, pH 8.5 in the analyte direction for 3 minutes at 30 μL/min.
The analysis temperature for the hCD3 binding analysis was 37° C. or 25° C. in a running buffer of HBS-T+, supplemented with 1 mg/mL BSA. A kinetic titration method was employed for the interaction analysis as described in Abdiche, et al. The hCD3 (human CD3) analyte was injected in the analyte direction using a series of injections from low to high concentration. The concentrations used were 0.08 nM, 0.4 nM, 2 nM, 10 nM and 50 nM (a 5-membered series, with a 5-fold dilution factor and top concentration of 50 nM). The association time for a given analyte dilution was two minutes. Immediately after the 50 nM hCD3 injection, dissociation was monitored for 2 hours. Prior to the hCD3 analyte injections, buffer was injected 5 times using the same association and dissociation times at the hCD3 analyte cycles to prepare a buffer blank sensorgram for double-referencing purposes (double referencing as described in Myszka, J. Mol. Recognit. 12, 279-284 (1999).
The sensorgrams were double-referenced and fit to a 1:1 Langmuir with mass transport kinetic titration model in BIAevaluation Software version 4.1.1 (GE Lifesciences, Piscataway, N.J.).

Assay [6] concerns the target cyCD3ed (Macaca fascicularis, UniProt Q95LI5). The experiment in a line: Kinetics and affinity of cyCD3ed/human IgG interactions by SPR (Bio-Rad Proteon XPR36). It counts as binding, cynomolgus. For orientation: SPR reads the build-up and loss of mass on a sensor chip optically.

hCD3 (human CD3), sequence (P07766 23-126 limits assumed): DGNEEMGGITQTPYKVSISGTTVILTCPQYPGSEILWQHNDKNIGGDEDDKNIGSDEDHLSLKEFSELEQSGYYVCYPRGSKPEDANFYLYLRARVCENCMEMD
hCD3 (human CD3), sequence (P04234 22-105 partner limits assumed): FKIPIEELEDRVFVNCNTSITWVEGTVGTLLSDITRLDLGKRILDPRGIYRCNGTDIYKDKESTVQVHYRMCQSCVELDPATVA
cyCD3ed, sequence (Q95LI5 22-117 limits assumed): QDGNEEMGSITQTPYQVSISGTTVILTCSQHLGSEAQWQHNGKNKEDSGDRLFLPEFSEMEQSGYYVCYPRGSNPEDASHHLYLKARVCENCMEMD
cyCD3ed, sequence (Q95LI8 22-105 partner limits assumed): as the sequence (P04234 22-105 partner limits assumed) above, with I5V, N15K, I20V, S32T, D33N, I34N, T64A, S74N, V83L counted along it

On to `Nc1cccc2c1CN(C1CCC(=O)NC1=O)C2=O` (centres unmarked) [lenalidomide], for which the “effect of combining on the efficacy of the anti-BCMA/CD3 bispecific antibody” value in assay [1] is “did not have a negative effect”. The “effect on the function of Combo_Rd4_0.6 nM_C29-CD3 bispecific antibody on OPM2 cells” value in assay [2] was “do not have a negative effect”.
As to “APRIL: a proliferation-inducing ligand, ligand of BCMA”, the Kd in assay [3] was 0.016 µM.
Turning to “BAFF: B-cell activation factor, ligand of BCMA”, the Kd in assay [3] was 1 µM.

B1: P5A2: anti-BCMA_H2B4 bispecific, human IgG2dA: anti-BCMA arm P5A2, anti-CD3 arm H2B4 (antibody, V domains shown)
VH: EVQLLESGGGLVQPGGSLRLSCAASGFTFSSYAMNWVRQAPGKGLEWVSAISDSGGSTYYADSVKGRFTISRDNSKNTLYLQMNSLRAEDTAVYYCARYWPMDIWGQGTLVTVSS
VL: EIVLTQSPGTLSLSPGERATLSCRASQSVSSSYLAWYQQKPGQAPRLLMYDASIRATGIPDRFSGSGSGTDFTLTISRLEPEDFAVYYCQQYGSWPLTFGQGTKVEIK
In the case of B1, in assay [4], the EC50 (commonly the midpoint of the concentration-response curve) was found to be 0.000946 µM.

B2: h2B4: anti-CD3 antibody (antibody, V domains shown)
VH: EVQLVESGGGLVQPGGSLRLSCAASGFTFSDYYMTWVRQAPGKGLEWVAFIRNRARGYTSDHNASVKGRFTISRDNAKNSLYLQMNSLRAEDTAVYYCARDRPSYYVLDYWGQGTTVTVSS
VL: DIVMTQSPDSLAVSLGERATINCTSSQSLFNVRSRKNYLAWYQQKPGQPPKLLISWASTRESGVPDRFSGSGSGTDFTLTISSLQAEDVAVYYCKQSYDLFTFGSGTKLEIK
B2: in assay [5] (25° C.), the “ka huCD3ed @25° C.” value came out at 370000 M⁻¹ s⁻¹ and the “kd huCD3ed @25° C.” value is 0.002 s⁻¹. Further, in assay [5] (37° C.), the “ka huCD3ed @37° C.” value stood at 437000 M⁻¹ s⁻¹ and the “kd huCD3ed @37° C.” value came to 0.01369 s⁻¹. Further, in assay [6], the “ka cyCD3ed @25° C.” value is 390000 M⁻¹ s⁻¹ and the “kd cyCD3ed @25° C.” value turned out to be 0.0015 s⁻¹.
